{"source": "paper PMC5560099", "system": "O=C(Cc1cccs1)N[C@@H]1C(=O)N2C(C(=O)O)=C(/C=C/c3ccc([N+](=O)[O-])cc3[N+](=O)[O-])CS[C@H]12", "assay": "steady-state hydrolysis kinetics with purified PenA", "assay_type": "biochemical, Burkholderia multivorans"}
{"substance": "PenA β-lactamase (Burkholderia multivorans ATCC 17616)", "values": [{"measurement": "Km", "value": "147 ± 15", "unit": "µM"}, {"measurement": "kcat/Km", "value": "3.2e+06 ± 300000", "unit": "M⁻¹ s⁻¹"}]}
